Laboratory results as given in paper PMC2133087 (The Journal of Cell Biology, 1998).
Blank lines part the entries; values can stand above or below the binder they belong to.

Biological target: actin filament (F-actin) polymerized from G-actin purified from rabbit skeletal muscle (rabbit, UniProt P68135 1-377)
Experiment: co-sedimentation

stoichiometry N: ~9 actin molecules per His6-b-nexilin molecule
B1: full-length His6-b-nexilin (natural protein)
chain: MNDVSQKAEILLSSSKPVPKSYVPKLGKGDVKDKFEAMQRAREERNQRRSRDEKQRRKEQYIREREWNRRKQEIKDMLASDEEEEPSKVEKAYVPKLTGTVKGKFDEMEKHRQEEQRKRTEEERKRRIEQDLLEKRKMQRELAKRAEQEGDDSLLITVVPAKSYRAAANRKDPEDLDREHRNGRVSQEEEKTRHEEECRALKEAKCLSLVMDDETEAKKESRFPGKLKSTFEELERQRQENRKKQAEEEARRRLEEERRAFEEARRNMVNEEDESQDTETVFKEYRPGKLRLSFEEIERQRREEEKRKAEEEARRRMEEEKKAFAEARRSMVLDDDSPEIYKAVSQESLTPGKLEINFEQLLRQKMEEERRRTEEERRQKLEMEKQEFEQLRQEMGKEEEENESFGLSREYEELIKLKRSGSIQAKNLKSKFEKIGQLSEKEVQKKIEEERAKRRAIDLEIKEREAENFHEDDDVDVKPAKKSESPFTHKVNMKARFEQMAKARQEEEQRRIEEQKLLRMQFEQKEIDAALQKKREDDEEEEGSIVNGSTTEDEEQTRSGAPWFKKPLRNTSVVDSEPVRFTVKVTGEPKPEVTWWFEGELLQDGEDYQYIERGETYCLYLPETFPEDGGEYMCKAVNSKGSAASTCILTIEMDDY

stoichiometry N: ~10 actin molecules per His6-s-nexilin molecule
B2: full-length His6-s-nexilin (natural protein)
chain: MNDVSQKAEIKDMLASDEEEEPSKVEKAYVPKLTGTVKGKFDEMEKHRQEEQRKRTEEERKRRIEQDLLEKRKMQRELAKRAEQIEDINNTGTESASEEGDDSLLITVVPAKSYRAAANRKDPEDLDREHRNGRVSQEEEKTRHEEECRALKEAKCLSLVMDDETEAKKESRFPGKLKSTFEELERQRQENRKKQAEEEARRRLEEERRAFEEARRNMVNEEDESQDTETVFKEYRPGKLRLSFEEIERQRREEEKRKAEEEARRRMEEEKKAFAEARRSMVLDDDSPEIYKAVSQESLTPGKLEINFEQLLRQKMEEERRRTEEERRQKLEMEKQEFEQLRQEMGKEEEENESFGLSREYEELIKLKRSGSIQAKNLKSKFEKIGQLSEKEVQKKIEEERAKRRAIDLEIKEREAENFHEDDDVDVKPAKKSESPFTHKVNMKARFEQMAKARQEEEQRRIEEQKLLRMQFEQKEIDAALQKKREDDEEEEGSIVNGSTTEDEEQTRSGAPWFKKPLRNTSVVDSEPVRFTVKVTGEPKPEVTWWFEGELLQDGEDYQYIERGETYCLYLPETFPEDGGEYMCKAVNSKGSAASTCILTIEMDDY
